# Biological target: the molecule itself
# Assay: AUC; sedimentation velocity, 50,000 rpm, absorbance optics, c(s) analysis; physiological ionic strength, buffers with Ca2+ or EDTA; 0.8-2.2 uM for full-length MASPs; dimer to monomers
protein,measurement,value
"rat MASP-2 CUB1-EGF-CUB2 (MASP-2 3D) (domain or fragment, N-glycosylated (glycosylation sites shown in Figure 1), Homodimer; production details are in the Supplemental Information; source: Chinese hamster ovary cells, purified (gel filtration, Superdex 200 16/60); not shown: His6, C-terminal, kept) SKWPEPVFGRLVSLGFPEKYGNHQDRSWTLTAPPGFRLRLYFTHFNLELSYRCEYDFVKLTSGTKVLATLCGQESTDTERAPGNDTFYSLGPSLKVTFHSDYSNEKPFTGFEAFYAAEDVDECRTSLGDSVPCDHYCHNYLGGYYCSCRVGYILHQNKHTCSALCSGQVFTGRSGFLSSPEYPQPYPKLSSCAYNIRLEEGFSITLDFVESFDVEMHPEAQCPYDSLKIQTDKREYGPFCGKTLPPRIETDSNKVTITFTTDESGNHTGWKIHYTSTAQP",stoichiometry N,2

# Source: PMC5300068, “Flexibility in Mannan-Binding Lectin-Associated Serine Proteases-1 and -2 Provides Insight on Lectin Pathway Activation” (Structure(London, England:1993), 2017)
